Measured values reported in patent US20250340854, “ENGINEERED Cas12f PROTEIN” (THE UNIVERSITY OF TOKYO, published 2025).

Tests used:
[1] = target: T1, Cas12f RARR (uncultured archaeon, UniProt A0A482D308 SEQ:1-529, I118R,Y122A,I126R,M178R); assay: size exclusion co-elution; 5 mM MgCl2, 50 mM NaCl, pH 8.0; conditions: tags: N-terminal His6; chain copies: 2 (stated)
T1 sequence: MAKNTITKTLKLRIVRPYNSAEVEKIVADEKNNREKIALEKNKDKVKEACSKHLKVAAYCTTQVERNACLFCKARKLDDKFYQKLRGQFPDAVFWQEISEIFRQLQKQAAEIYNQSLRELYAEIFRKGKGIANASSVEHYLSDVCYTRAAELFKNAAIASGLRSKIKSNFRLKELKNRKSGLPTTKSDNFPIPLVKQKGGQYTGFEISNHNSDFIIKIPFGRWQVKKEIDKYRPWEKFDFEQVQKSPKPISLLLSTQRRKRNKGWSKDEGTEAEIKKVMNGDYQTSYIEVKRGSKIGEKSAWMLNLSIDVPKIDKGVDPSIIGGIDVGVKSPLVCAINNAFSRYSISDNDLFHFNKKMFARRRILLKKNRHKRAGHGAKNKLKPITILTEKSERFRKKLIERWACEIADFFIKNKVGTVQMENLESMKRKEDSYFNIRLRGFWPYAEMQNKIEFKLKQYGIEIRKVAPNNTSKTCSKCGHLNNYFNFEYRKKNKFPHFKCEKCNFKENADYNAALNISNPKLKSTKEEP
Protocol: (§1) The peak fraction was analyzed by SDS-PAGE and Urea PAGE. The WT Cas12f protein and the RARR mutant were each eluted together with sgRNA at the same position.

[2] = target: T2, Cas12f (Cas12f1, Cas14a) (uncultured archaeon, UniProt A0A482D308 SEQ:1-529); assay: as above; conditions: tags: N-terminal His6; chain copies: 2 (stated)
T2 sequence: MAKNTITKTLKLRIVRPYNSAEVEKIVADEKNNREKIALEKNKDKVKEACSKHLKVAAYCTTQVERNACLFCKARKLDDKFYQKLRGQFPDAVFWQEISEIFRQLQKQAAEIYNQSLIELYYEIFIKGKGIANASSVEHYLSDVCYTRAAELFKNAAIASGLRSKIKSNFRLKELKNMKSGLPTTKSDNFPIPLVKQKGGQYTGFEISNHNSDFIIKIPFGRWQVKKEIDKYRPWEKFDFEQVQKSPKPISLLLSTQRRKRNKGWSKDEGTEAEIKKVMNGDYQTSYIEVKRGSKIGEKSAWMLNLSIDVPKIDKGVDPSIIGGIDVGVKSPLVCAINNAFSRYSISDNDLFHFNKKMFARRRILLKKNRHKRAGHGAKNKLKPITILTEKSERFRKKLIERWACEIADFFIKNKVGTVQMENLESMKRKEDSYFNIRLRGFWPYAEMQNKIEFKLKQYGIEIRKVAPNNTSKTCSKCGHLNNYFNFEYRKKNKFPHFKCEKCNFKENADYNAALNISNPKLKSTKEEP
Protocol: as §1

B1: WT sgRNA (ssRNA)
RNA: GGUUCACUGAUAAAGUGGAGAACCGCUUCACCAAAAGCUGUCCCUUAGGGGAUUAGAACUUGAGUGAAGGUGGGCUGCUUGCAUCAGCCUAAUGUCGAGAAGUGCUUUCUUCGGAAAGUAACCCUCGAAACAAAUUCAUUUGAAAGAAUGAAGGAAUGCAACGGAAAUUAGGUGCGCUUGGC
binding result [1]: binds | binding result [2]: binds

B2: Cas12f I118R mutant (protein)
chain: MAKNTITKTLKLRIVRPYNSAEVEKIVADEKNNREKIALEKNKDKVKEACSKHLKVAAYCTTQVERNACLFCKARKLDDKFYQKLRGQFPDAVFWQEISEIFRQLQKQAAEIYNQSLRELYYEIFIKGKGIANASSVEHYLSDVCYTRAAELFKNAAIASGLRSKIKSNFRLKELKNMKSGLPTTKSDNFPIPLVKQKGGQYTGFEISNHNSDFIIKIPFGRWQVKKEIDKYRPWEKFDFEQVQKSPKPISLLLSTQRRKRNKGWSKDEGTEAEIKKVMNGDYQTSYIEVKRGSKIGEKSAWMLNLSIDVPKIDKGVDPSIIGGIDVGVKSPLVCAINNAFSRYSISDNDLFHFNKKMFARRRILLKKNRHKRAGHGAKNKLKPITILTEKSERFRKKLIERWACEIADFFIKNKVGTVQMENLESMKRKEDSYFNIRLRGFWPYAEMQNKIEFKLKQYGIEIRKVAPNNTSKTCSKCGHLNNYFNFEYRKKNKFPHFKCEKCNFKENADYNAALNISNPKLKSTKEEP
in vitro DNA cleavage activity: reduced the DNA cleavage activity

B3: Cas12f Y122A mutant (protein)
chain: MAKNTITKTLKLRIVRPYNSAEVEKIVADEKNNREKIALEKNKDKVKEACSKHLKVAAYCTTQVERNACLFCKARKLDDKFYQKLRGQFPDAVFWQEISEIFRQLQKQAAEIYNQSLIELYAEIFIKGKGIANASSVEHYLSDVCYTRAAELFKNAAIASGLRSKIKSNFRLKELKNMKSGLPTTKSDNFPIPLVKQKGGQYTGFEISNHNSDFIIKIPFGRWQVKKEIDKYRPWEKFDFEQVQKSPKPISLLLSTQRRKRNKGWSKDEGTEAEIKKVMNGDYQTSYIEVKRGSKIGEKSAWMLNLSIDVPKIDKGVDPSIIGGIDVGVKSPLVCAINNAFSRYSISDNDLFHFNKKMFARRRILLKKNRHKRAGHGAKNKLKPITILTEKSERFRKKLIERWACEIADFFIKNKVGTVQMENLESMKRKEDSYFNIRLRGFWPYAEMQNKIEFKLKQYGIEIRKVAPNNTSKTCSKCGHLNNYFNFEYRKKNKFPHFKCEKCNFKENADYNAALNISNPKLKSTKEEP
in vitro DNA cleavage activity: reduced the DNA cleavage activity

B4: Cas12f I126R mutant (protein)
chain: MAKNTITKTLKLRIVRPYNSAEVEKIVADEKNNREKIALEKNKDKVKEACSKHLKVAAYCTTQVERNACLFCKARKLDDKFYQKLRGQFPDAVFWQEISEIFRQLQKQAAEIYNQSLIELYYEIFRKGKGIANASSVEHYLSDVCYTRAAELFKNAAIASGLRSKIKSNFRLKELKNMKSGLPTTKSDNFPIPLVKQKGGQYTGFEISNHNSDFIIKIPFGRWQVKKEIDKYRPWEKFDFEQVQKSPKPISLLLSTQRRKRNKGWSKDEGTEAEIKKVMNGDYQTSYIEVKRGSKIGEKSAWMLNLSIDVPKIDKGVDPSIIGGIDVGVKSPLVCAINNAFSRYSISDNDLFHFNKKMFARRRILLKKNRHKRAGHGAKNKLKPITILTEKSERFRKKLIERWACEIADFFIKNKVGTVQMENLESMKRKEDSYFNIRLRGFWPYAEMQNKIEFKLKQYGIEIRKVAPNNTSKTCSKCGHLNNYFNFEYRKKNKFPHFKCEKCNFKENADYNAALNISNPKLKSTKEEP
in vitro DNA cleavage activity: reduced the DNA cleavage activity

B5: Cas12f M178R mutant (protein)
chain: MAKNTITKTLKLRIVRPYNSAEVEKIVADEKNNREKIALEKNKDKVKEACSKHLKVAAYCTTQVERNACLFCKARKLDDKFYQKLRGQFPDAVFWQEISEIFRQLQKQAAEIYNQSLIELYYEIFIKGKGIANASSVEHYLSDVCYTRAAELFKNAAIASGLRSKIKSNFRLKELKNRKSGLPTTKSDNFPIPLVKQKGGQYTGFEISNHNSDFIIKIPFGRWQVKKEIDKYRPWEKFDFEQVQKSPKPISLLLSTQRRKRNKGWSKDEGTEAEIKKVMNGDYQTSYIEVKRGSKIGEKSAWMLNLSIDVPKIDKGVDPSIIGGIDVGVKSPLVCAINNAFSRYSISDNDLFHFNKKMFARRRILLKKNRHKRAGHGAKNKLKPITILTEKSERFRKKLIERWACEIADFFIKNKVGTVQMENLESMKRKEDSYFNIRLRGFWPYAEMQNKIEFKLKQYGIEIRKVAPNNTSKTCSKCGHLNNYFNFEYRKKNKFPHFKCEKCNFKENADYNAALNISNPKLKSTKEEP
in vitro DNA cleavage activity: reduced the DNA cleavage activity

B6: Cas12f I118R/Y122A/I126R/M178R (RARR) mutant (protein)
chain: MAKNTITKTLKLRIVRPYNSAEVEKIVADEKNNREKIALEKNKDKVKEACSKHLKVAAYCTTQVERNACLFCKARKLDDKFYQKLRGQFPDAVFWQEISEIFRQLQKQAAEIYNQSLRELYAEIFRKGKGIANASSVEHYLSDVCYTRAAELFKNAAIASGLRSKIKSNFRLKELKNRKSGLPTTKSDNFPIPLVKQKGGQYTGFEISNHNSDFIIKIPFGRWQVKKEIDKYRPWEKFDFEQVQKSPKPISLLLSTQRRKRNKGWSKDEGTEAEIKKVMNGDYQTSYIEVKRGSKIGEKSAWMLNLSIDVPKIDKGVDPSIIGGIDVGVKSPLVCAINNAFSRYSISDNDLFHFNKKMFARRRILLKKNRHKRAGHGAKNKLKPITILTEKSERFRKKLIERWACEIADFFIKNKVGTVQMENLESMKRKEDSYFNIRLRGFWPYAEMQNKIEFKLKQYGIEIRKVAPNNTSKTCSKCGHLNNYFNFEYRKKNKFPHFKCEKCNFKENADYNAALNISNPKLKSTKEEP
in vitro DNA cleavage activity: lacked the DNA cleavage activity
